Results published in PMC8257531, “ARL15 modulates magnesium homeostasis through N-glycosylation of CNNMs” (Cellular and Molecular Life Sciences: CMLS, 2021).

B1: CNNM2BAT (domain or fragment, UniProt Q9H8M5 429-584, looked up)
chain: KEELNIIQGALELRTKTVEDVMTPLRDCFMITGEAILDFNTMSEIMESGYTRIPVFEGERSNIVDLLFVKDLAFVDPDDCTPLKTITKFYNHPLHFVFNDTKLDAMLEEFKKGKSHLAIVQRVNNEGEGDPFYEVLGIVTLEDVIEEIIKSEILDE
notes: Bateman module (CBS1 and CBS2) of CNNM2, purified; theoretical mass of the monomer printed as 17.72 kDa; also called Bateman module of CNNM2

How the values were obtained:
CNNM2BAT = molecular target: B1; experiment: SEC; Superdex 200 Increase 10/300 GL, 1 mg/mL protein, 0.5 ml/min, 50 mM Hepes pH 8.5, 200 mM NaCl, 1 mM MgCl2, 1 mM TCEP; masses from a calibration line; details: both partners purified
[1] = molecular target: the molecule itself; experiment: as above

Binder | stoichiometry N (CNNM2BAT) | stoichiometry N [1]
Pure ARL15 (gel filtration) (natural protein, UniProt Q9NXU5 1-204, looked up, ARL15, purified; theoretical mass of the monomer printed as 19.57 kDa; The printed theoretical mass of 19.57 kDa is below that of whole ARL15, so a shortened construct is likely) MSDLRITEAFLYMDYLCFRALCCKGPPPARPEYDLVCIGLTGSGKTSLLSKLCSESPDNVVSTTGFSIKAVPFQNAILNVKELGGADNIRKYWSRYYQGSQGVIFVLDSASSEDDLEAARNELHSALQHPQLCTLPFLILANHQDKPAARSVQEIKKYFELEPLARGKRWILQPCSLDDMDALKDSFSQLINLLEEKDHEAVRM | 1 ARL15 per CNNM2BAT (2:2) | 2
B1 | – | 2
